In US20100316665A1:

T1: OmpF porin purified from Salmonella typhi (Salmonella enterica subsp. enterica serovar Typhi), Q56113
T1 chain: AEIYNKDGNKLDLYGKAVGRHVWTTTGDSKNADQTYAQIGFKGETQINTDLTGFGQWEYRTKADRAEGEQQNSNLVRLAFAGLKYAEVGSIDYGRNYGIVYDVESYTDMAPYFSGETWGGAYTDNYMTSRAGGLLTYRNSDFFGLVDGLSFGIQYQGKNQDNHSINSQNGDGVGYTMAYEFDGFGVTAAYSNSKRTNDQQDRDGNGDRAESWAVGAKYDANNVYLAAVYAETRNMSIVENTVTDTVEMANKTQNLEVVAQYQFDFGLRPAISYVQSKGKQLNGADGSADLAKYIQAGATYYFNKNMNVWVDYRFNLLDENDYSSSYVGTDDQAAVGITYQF

T2: OmpC porin purified from Salmonella typhi (Salmonella enterica subsp. enterica serovar Typhi), A0A0H3
T2 chain: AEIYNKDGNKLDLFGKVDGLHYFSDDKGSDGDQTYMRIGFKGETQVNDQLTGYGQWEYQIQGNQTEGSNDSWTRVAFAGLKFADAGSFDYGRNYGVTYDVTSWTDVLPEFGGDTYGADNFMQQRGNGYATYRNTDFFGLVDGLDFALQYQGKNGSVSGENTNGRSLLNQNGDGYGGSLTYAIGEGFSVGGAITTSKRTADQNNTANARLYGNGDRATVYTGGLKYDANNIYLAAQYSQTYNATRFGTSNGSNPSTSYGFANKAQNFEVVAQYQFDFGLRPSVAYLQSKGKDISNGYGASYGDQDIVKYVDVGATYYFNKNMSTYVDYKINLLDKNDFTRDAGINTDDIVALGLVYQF


Key:
[1] = target: T1, OmpF porin purified from Salmonella …; test: phage display panning on OmpF, frequency of occurrence among sequenced binders
[2] = target: T2, OmpC porin purified from Salmonella …; test: phage display panning on OmpC, frequency of occurrence among sequenced binders

Row | Frequency (fraction of sequenced phage) [1] | Frequency (fraction of sequenced phage) [2] | Binder
1 | 0.6 | – | FHENWPS (modifications not checked) [affinity peptide FHENWPS]
2 | 0.4 | – | FHEFWPT (modifications not checked) [affinity peptide FHEFWPT]
3 | – | 0.125 | TATYLLD (modifications not checked) [affinity peptide TATYLLD]
4 | – | 0.75 | EAKGLIR (modifications not checked) [affinity peptide EAKGLIR]
5 | – | 0.125 | SLSLIQT (modifications not checked) [affinity peptide SLSLIQT]
